PMC11938383, “Antibodies targeting ADAM17 reverse neurite outgrowth inhibition by myelin-associated inhibitors” (Life Science Alliance, 2025)
Blank lines part the entries; values can stand above or below the molecule they belong to.

Columns and labels:
p75-Fc (human) = p75-Fc (human) (UniProt P08138); assay: BLI; Blitz (Forte Bio); 5-mer complex (via Lingo-Fc) or p75-Fc loaded at 50 μg/ml on protein A sensors; ADAM17 ECD (E406A) or D+C in solution; HBS (20 mM Hepes, 150 mM NaCl pH 7.4); apparent KD
[1] = target: neuron-myelin 5-mer signaling complex (NgR1, Lingo-1-Fc, p75, MAG, GT1b-Na) (mouse | human) (UniProt Q9D1T0); assay: as above
[2] = target: the molecule itself; assay: SEC; individual proteins (Lingo-1, NgR1, p75 31-250) run alone on the SD-200 column, in the presence of GT1b-Na
[3] = target: T1, neuronal receptor/co-receptor/p75 complex (Lingo-1-Fc, NgR1, p75, formed with GT1b-Na) (mouse | human, UniProt Q9D1T0 35-516; Q9BZR6 30-430; P08138 31-210); assay: pull-down; Lingo-1-Fc as bait on protein A-Sepharose; untagged NgR1, p75 (31-210) and MAG as prey; NgR1 and p75 pre-incubated with GT1b-Na (molar ratio 1:10), with or without GT1b-Na; 10 mM Hepes pH 7.4, 150 mM NaCl, 0.05% Triton-X100; 25°C, 1 h; two washes; SDS-PAGE; conditions: both partners purified
T1 construct: Lingo-1, mouse, residues 35-516; NgR1, human, residues 30-430; p75, human, residues 31-210 (the version used in the pull-down assays); also called NgR1, Lingo-1, p75 complex; neuronal complex; source: assembled from purified HEK293 proteins on protein A-Sepharose in the presence of GT1b-Na; not shown: Fc, C-terminal, kept; Fc, C-terminal, cleaved; copies: + +
T1 sequence (looked up) 1: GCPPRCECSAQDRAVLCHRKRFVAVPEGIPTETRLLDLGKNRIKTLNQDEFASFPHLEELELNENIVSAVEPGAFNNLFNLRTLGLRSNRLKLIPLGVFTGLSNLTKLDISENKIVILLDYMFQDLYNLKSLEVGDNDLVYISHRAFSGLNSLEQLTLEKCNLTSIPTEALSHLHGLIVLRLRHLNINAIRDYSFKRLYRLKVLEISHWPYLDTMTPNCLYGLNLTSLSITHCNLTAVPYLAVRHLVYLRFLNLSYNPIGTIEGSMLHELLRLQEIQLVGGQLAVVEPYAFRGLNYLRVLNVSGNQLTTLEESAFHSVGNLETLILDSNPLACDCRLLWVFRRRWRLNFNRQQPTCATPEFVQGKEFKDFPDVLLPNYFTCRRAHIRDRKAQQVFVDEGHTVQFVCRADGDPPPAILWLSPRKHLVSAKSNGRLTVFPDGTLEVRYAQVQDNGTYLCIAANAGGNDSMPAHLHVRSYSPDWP
T1 sequence (looked up) 2: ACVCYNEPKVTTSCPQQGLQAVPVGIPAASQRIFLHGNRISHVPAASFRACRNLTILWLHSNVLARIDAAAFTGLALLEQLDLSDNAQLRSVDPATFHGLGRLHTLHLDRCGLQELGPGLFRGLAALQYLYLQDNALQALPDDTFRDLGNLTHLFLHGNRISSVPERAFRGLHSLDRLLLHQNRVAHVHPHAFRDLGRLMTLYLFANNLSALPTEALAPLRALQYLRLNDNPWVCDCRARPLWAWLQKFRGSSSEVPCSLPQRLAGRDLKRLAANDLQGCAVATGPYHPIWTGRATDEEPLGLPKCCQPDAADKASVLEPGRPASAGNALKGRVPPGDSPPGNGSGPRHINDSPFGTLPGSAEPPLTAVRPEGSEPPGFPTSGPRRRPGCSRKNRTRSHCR
T1 sequence (looked up) 3: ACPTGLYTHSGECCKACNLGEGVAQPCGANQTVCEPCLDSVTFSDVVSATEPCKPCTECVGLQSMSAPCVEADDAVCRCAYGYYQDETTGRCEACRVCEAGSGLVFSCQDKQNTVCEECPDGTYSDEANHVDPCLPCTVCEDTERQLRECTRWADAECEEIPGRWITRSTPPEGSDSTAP

[4] = target: ADAM17 ectodomain (ECD), residues 215-650, active-site mutant E406A (human, UniProt P78536 215-650, E406A); assay: BLI

B1: Lingo-1 ectodomain (35-516) (domain or fragment, mouse, UniProt Q9D1T0 35-516, looked up)
chain: T1 sequence (looked up) 1
notes: Lingo-1 (LINGO-1), mouse, ectodomain, residues 35-516; Used in size-exclusion chromatography; It migrates as a tetramer; source: HEK293, purified (protein A Sepharose, size-exclusion on SD-200)
- stoichiometry N [2]: 4

B2: p75 ectodomain (residues 31-250) (domain or fragment, human, UniProt P08138 31-250, looked up)
chain: ACPTGLYTHSGECCKACNLGEGVAQPCGANQTVCEPCLDSVTFSDVVSATEPCKPCTECVGLQSMSAPCVEADDAVCRCAYGYYQDETTGRCEACRVCEAGSGLVFSCQDKQNTVCEECPDGTYSDEANHVDPCLPCTVCEDTERQLRECTRWADAECEEIPGRWITRSTPPEGSDSTAPSTQEPEAPPEQDLIASTVAGVVTTVMGSSQPVVTRGTTDN
notes: p75 (p75 NGF receptor), human, entire ectodomain, residues 31-250; Used in size-exclusion chromatography; migrates as an apparent dimer; One sentence of the methods prints 21-250 for this construct; also called longer version of p75; source: HEK293, purified (protein A Sepharose, size-exclusion on SD-200)
- stoichiometry N [2]: 2

B3: MAG (residues 22-504) (domain or fragment, human, UniProt P20916 22-504, looked up)
chain: WGAWMPSSISAFEGTCVSIPCRFDFPDELRPAVVHGVWYFNSPYPKNYPPVVFKSRTQVVHESFQGRSRLLGDLGLRNCTLLLSNVSPELGGKYYFRGDLGGYNQYTFSEHSVLDIVNTPNIVVPPEVVAGTEVEVSCMVPDNCPELRPELSWLGHEGLGEPAVLGRLREDEGTWVQVSLLHFVPTREANGHRLGCQASFPNTTLQFEGYASMDVKYPPVIVEMNSSVEAIEGSHVSLLCGADSNPPPLLTWMRDGTVLREAVAESLLLELEEVTPAEDGVYACLAENAYGQDNRTVGLSVMYAPWKPTVNGTMVAVEGETVSILCSTQSNPDPILTIFKEKQILSTVIYESELQLELPAVSPEDDGEYWCVAENQYGQRATAFNLSVEFAPVLLLESHCAAARDTVQCLCVVKSNPEPSVAFELPSRNVTVNESEREFVYSERSGLVLTSILTLRGQAQAPPRVICTARNLYGAKSLELPFQ
notes: myelin-associated glycoprotein (MAG), human, residues 22-504; also called myelin-associated glycoprotein; source: HEK293, purified (protein A Sepharose, size-exclusion on SD-200); not shown: Fc, C-terminal, cleaved
- binding result [3]: binds

Further lines, results first:

- Kd (p75-Fc (human)): 350 nM
- Kd [1]: 350 nM
Molecule: ADAM17 D+C (disintegrin + cysteine-rich domain region) (from UniProt P78536 474-646) (domain or fragment)

- Kd [4]: > 10000 nM
B4: p75-Fc (Fc fusion)
chain: T1 sequence (looked up) 3
